Numbering of substitutions follows the chain as printed. Numbers in names are those of the source. Where two headings read alike, the source gives them in different places.
B1: 8H3_9C2 (CDR1)/CP08E05 (antibody, IgG4, V domains shown)
VH: EVQLLESGGGLVQPGGSLRLSCAASEFTFSDHAMSWVRQAPGKGLEWVATISSGGTYTYYPDSVKGRFTISRDNSKNTLYLQMNSLKAEDTAMYYCARHDFDYFPYWFAHWGQGTLVTVSS
VL: EIVLTQSPATLSLSPGERATLSCRANSAVSYMYWYQQKPGQAPRPWIYLTSNRATGVPARFSGSGSGTDYTLTISSLEPEDFAVYYCQQWTTNPPTFGQGTKLEIK
notes: IgG4 (S241P), kappa
B2: 8H3_9C2 (CDR1)/CP08F05 (antibody, IgG4, V domains shown)
VH: B1 VH
VL: B1 VL with T92S
notes: IgG4 (S241P), kappa
B3: CP09E05/CP08E01 (antibody, IgG4, V domains shown)
VH: B1 VH with E26G, T28I, D31S, A33G, D100G, F104D, P105A, Y106A, H110Y
VL: B1 VL with N93F
notes: IgG4 (S241P), kappa
B4: VH1/CP08E05 (antibody, IgG4, V domains shown)
VH: B1 VH with E26G, T28I, D31S, A33G, F104D, P105A, Y106A, H110Y
VL: B1 VL
notes: IgG4 (S241P), kappa; also called Parent VH/CP08E05
B5: 8H3_9C2/CP08E05 (antibody, IgG4, V domains shown)
VH: B1 VH with D100G
VL: B1 VL
notes: IgG4 (S241P), kappa
B6: 8H3_9E5/CP08E05 (antibody, IgG4, V domains shown)
VH: B1 VH with E26G, T28I, D31S, A33G, D100G
VL: B1 VL
notes: IgG4 (S241P), kappa
B7: CP09E05/CP08E05 (antibody, IgG4, V domains shown)
VH: B1 VH with E26G, T28I, D31S, A33G, D100G, F104D, P105A, Y106A, H110Y
VL: B1 VL
notes: IgG4 (S241P), kappa
B8: CP09E05/Vκ8 S29A (antibody, IgG4, V domains shown)
VH: B1 VH with E26G, T28I, D31S, A33G, D100G, F104D, P105A, Y106A, H110Y
VL: B1 VL with T91S, T92S
notes: IgG4 (S241P), kappa
B9: CP09B03/Vκ8 S29A (antibody, IgG4, V domains shown)
VH: B1 VH with E26G, S30N, D31A, M34I, F104D, P105A, Y106A, H110Y
VL: B1 VL with T91S, T92S
notes: IgG4 (S241P), kappa
B10: 8H3_9C2/Vκ8 S29A (antibody, IgG4, V domains shown)
VH: B1 VH with D100G
VL: B1 VL with T91S, T92S
notes: IgG4 (S241P), kappa
B11: CP09C02/CP08E01 (antibody, IgG4, V domains shown)
VH: B1 VH with D100G, F104D, P105A, Y106A, H110Y
VL: B1 VL with N93F
notes: IgG4 (S241P), kappa
B12: 8H3_9E5/CP08F05 (antibody, IgG4, V domains shown)
VH: B1 VH with E26G, T28I, D31S, A33G, D100G
VL: B1 VL with T92S
notes: IgG4 (S241P), kappa
B13: CP09E05/CP08G09 (antibody, IgG4, V domains shown)
VH: B1 VH with E26G, T28I, D31S, A33G, D100G, F104D, P105A, Y106A, H110Y
VL: B1 VL with T92A, N93F
notes: IgG4 (S241P), kappa
B14: 8H3_9E5/Vκ8 S29A (antibody, IgG4, V domains shown)
VH: B1 VH with E26G, T28I, D31S, A33G, D100G
VL: B1 VL with T91S, T92S
notes: IgG4 (S241P), kappa
B15: CP09C02/CP08G09 (antibody, IgG4, V domains shown)
VH: B1 VH with D100G, F104D, P105A, Y106A, H110Y
VL: B1 VL with T92A, N93F
notes: IgG4 (S241P), kappa
B16: VH1/CP08D02 (antibody, IgG4, V domains shown)
VH: B1 VH with E26G, T28I, D31S, A33G, F104D, P105A, Y106A, H110Y
VL: B1 VL with T92S, N93F
notes: IgG4 (S241P), kappa; also called Parent VH/CP08D02
B17: CP09C02/CP08D02 (antibody, IgG4, V domains shown)
VH: B1 VH with D100G, F104D, P105A, Y106A, H110Y
VL: B1 VL with T92S, N93F
notes: IgG4 (S241P), kappa
B18: VH1/CP08E01 (antibody, IgG4, V domains shown)
VH: B1 VH with E26G, T28I, D31S, A33G, F104D, P105A, Y106A, H110Y
VL: B1 VL with N93F
notes: IgG4 (S241P), kappa; also called Parent VH/CP08E01
B19: CP09E05/CP08D02 (antibody, IgG4, V domains shown)
VH: B1 VH with E26G, T28I, D31S, A33G, D100G, F104D, P105A, Y106A, H110Y
VL: B1 VL with T92S, N93F
notes: IgG4 (S241P), kappa
B20: VH1/CP08G09 (antibody, IgG4, V domains shown)
VH: B1 VH with E26G, T28I, D31S, A33G, F104D, P105A, Y106A, H110Y
VL: B1 VL with T92A, N93F
notes: IgG4 (S241P), kappa; also called Parent VH/CP08G09
B21: CP09C02/Vκ8 S29A (antibody, IgG4, V domains shown)
VH: B1 VH with D100G, F104D, P105A, Y106A, H110Y
VL: B1 VL with T91S, T92S
notes: IgG4 (S241P), kappa
B22: VH1/CP08F05 (antibody, IgG4, V domains shown)
VH: B1 VH with E26G, T28I, D31S, A33G, F104D, P105A, Y106A, H110Y
VL: B1 VL with T92S
notes: IgG4 (S241P), kappa; also called Parent VH/CP08F05
B23: 8H3_9C2 (CDR1)/Vκ8 S29A (antibody, IgG4, V domains shown)
VH: B1 VH
VL: B1 VL with T91S, T92S
notes: IgG4 (S241P), kappa
B24: CP09E05/CP08F05 (antibody, IgG4, V domains shown)
VH: B1 VH with E26G, T28I, D31S, A33G, D100G, F104D, P105A, Y106A, H110Y
VL: B1 VL with T92S
notes: IgG4 (S241P), kappa

What was measured:
Experiment in all cases: SPR single-cycle, supernatant IgG captured
His-tagged CEACAM1 [1] = biological target: T1, His-tagged CEACAM1 (human, UniProt P13688 35-428)
T1 construct: 45 kDa SPR analyte; also called CEACAM1-HIS; CEACAM1 analyte
T1 sequence: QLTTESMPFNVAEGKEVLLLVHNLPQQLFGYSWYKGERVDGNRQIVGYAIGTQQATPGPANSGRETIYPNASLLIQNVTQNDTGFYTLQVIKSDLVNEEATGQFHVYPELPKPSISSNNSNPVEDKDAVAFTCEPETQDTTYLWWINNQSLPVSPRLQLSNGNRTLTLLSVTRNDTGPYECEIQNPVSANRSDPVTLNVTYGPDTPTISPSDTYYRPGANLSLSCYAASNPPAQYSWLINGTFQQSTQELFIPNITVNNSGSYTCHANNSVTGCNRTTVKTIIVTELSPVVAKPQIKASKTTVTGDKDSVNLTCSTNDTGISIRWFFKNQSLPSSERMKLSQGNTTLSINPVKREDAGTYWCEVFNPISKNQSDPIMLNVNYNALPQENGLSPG
Experimental: (§1) In order to assess the binding of the humanized, affinity matured reformatted lead IgGs, single-cycle kinetics analysis was performed on crude supernatants using a Biacore T200 running Biacore T200 Control Software V2.0.1 and Biacore T200 Evaluation Software V3.0. Antibodies were diluted in HBS-P+ to a final concentration of 0.5 μg/ml. At the start of each cycle, antibodies were loaded onto Fc2, Fc3 and Fc4 of the Protein A chip. IgGs were captured at a flow rate of 10 μl/min to give an immobilisation level (RL) of ˜100 RU (a level calculated to obtain a Rₘₐₓ of ˜50-150 RU once the analyte is bound). The surface was then allowed to stabilize. Single-cycle kinetics data was obtained with CEACAM1 as the analyte at a flow rate of 80 μl/min to minimize any potential mass transfer effects. Multiple repeats with the parent (VH1/Vκ8 S29A) antibody were performed to check the stability of the surface and analyte over the kinetic cycles. The signal from the reference channel Fc1 (no antibody) was subtracted from that of Fc2, Fc3 and Fc4 to correct for differences in non-specific binding to the reference surface. A three point, two-fold dilution range from 70 nM to 280 nM CEACAM1 without regeneration between each concentration was used. The signal from each antibody blank run (no CEACAM1) was subtracted to correct for differences in surface stability. The association phase for the three injections of increasing concentrations of CEACAM1 was monitored for 80 seconds each time and a single dissociation phase was measured for 150 seconds following the last injection of CEACAM1. Regeneration of the Protein A surface was conducted using two injections of 10 mM glycine-HCL pH 1.5 followed by a stabilization period of 250 seconds.

His-tagged CEACAM1 [2] = biological target: T1, His-tagged CEACAM1; remark: listed apart in the source
In short: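 Antibody IgG was produced by transient PEI transfection of HEK EBNA cells in 6-well plates, with supernatants collected 5-7 days later, quantified by ELISA and filtered. Binding was measured by single-cycle surface plasmon resonance on a Biacore T200 at 25° C in HBS-P+ (pH 7.4), capturing IgG on Protein A and flowing His-tagged CEACAM1 as analyte. Kon, koff and Kd were obtained by fitting, and relative KD was expressed against the parent antibody tested in the same experiment.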

His-tagged CEACAM1 [3] = biological target: T1, His-tagged CEACAM1; remark: listed apart in the source
Experimental: as §1

Row | Binder | Kd (His-tagged CEACAM1 [1]) [nM] | koff (His-tagged CEACAM1 [1]) [s⁻¹] | kon (His-tagged CEACAM1 [1]) [M⁻¹ s⁻¹] | relative KD to parent (His-tagged CEACAM1 [1]) | Kd (His-tagged CEACAM1 [2]) [nM] | koff (His-tagged CEACAM1 [2]) [s⁻¹] | kon (His-tagged CEACAM1 [2]) [M⁻¹ s⁻¹] | relative KD to parent (His-tagged CEACAM1 [2]) | Kd (His-tagged CEACAM1 [3]) [nM] | koff (His-tagged CEACAM1 [3]) [s⁻¹] | kon (His-tagged CEACAM1 [3]) [M⁻¹ s⁻¹] | relative KD to parent (His-tagged CEACAM1 [3])
1 | B1 | 250 | 0.019 | 73000 | 2.2 |  |  |  |  |  |  |  | 
2 | B2 | 240 | 0.017 | 72000 | 2.3 |  |  |  |  |  |  |  | 
3 | B3 |  |  |  |  | 320 | 0.041 | 130000 | 1.7 |  |  |  | 
4 | B4 |  |  |  |  | 230 | 0.034 | 150000 | 2.4 | 140 | 0.034 | 240000 | 4.4
5 | B5 | 110 | 0.0071 | 67000 | 5.3 |  |  |  |  |  |  |  | 
6 | B6 | 320 | 0.025 | 79000 | 1.8 |  |  |  |  |  |  |  | 
7 | B7 |  |  |  |  | 200 | 0.02 | 100000 | 2.8 |  |  |  | 
8 | B8 |  |  |  |  | 300 | 0.035 | 120000 | 1.8 | 320 | 0.037 | 120000 | 1.4
9 | B9 |  |  |  |  | 300 | 0.052 | 170000 | 1.8 | 260 | 0.039 | 150000 | 2.4
10 | B10 | 110 | 0.0071 | 65000 | 5.1 |  |  |  |  |  |  |  | 
11 | B11 |  |  |  |  | 140 | 0.02 | 140000 | 3.9 |  |  |  | 
12 | B12 | 280 | 0.028 | 77000 | 2 |  |  |  |  |  |  |  | 
13 | B13 |  |  |  |  | 320 | 0.043 | 140000 | 1.8 |  |  |  | 
14 | B14 | 300 | 0.024 | 81000 | 1.9 |  |  |  |  |  |  |  | 
15 | B15 |  |  |  |  | 140 | 0.018 | 130000 | 3.9 |  |  |  | 
16 | B16 |  |  |  |  | 450 | 0.057 | 130000 | 1.2 | 100 | 0.043 | 430000 | 6.2
17 | B17 |  |  |  |  | 140 | 0.022 | 160000 | 4 |  |  |  | 
18 | B18 |  |  |  |  | 450 | 0.053 | 120000 | 1.2 | 170 | 0.054 | 330000 | 3.7
19 | B19 |  |  |  |  | 330 | 0.074 | 230000 | 1.7 |  |  |  | 
20 | B20 |  |  |  |  | 480 | 0.057 | 120000 | 1.2 | 110 | 0.049 | 470000 | 5.9
21 | B21 |  |  |  |  | 170 | 0.019 | 110000 | 3.3 | 88 | 0.017 | 200000 | 7.1
22 | B22 |  |  |  |  | 280 | 0.029 | 100000 | 2 | 280 | 0.11 | 400000 | 2.2
23 | B23 | 210 | 0.018 | 88000 | 2.7 |  |  |  |  |  |  |  | 
24 | B24 |  |  |  |  | 250 | 0.034 | 140000 | 2.2 |  |  |  | 

Reference: patent publication US20250074980A1 (BRIGHAM AND WOMEN S HOSPITAL, published 2025)
